In the DeepSol protein solubility set:

assay: soluble on expression in E. coli; label from the status in PepcDB or PDB records

Sequence | soluble on expression in E. coli
MEFEGCSGFRQRLVLSTLSGKPVKIRNIRSKDDNPGLRDFEASFIRMLDKLTNGTRIEINQTGTVLFYQPGLLYGGSVEHECNVQRSVGYYLEALLMLVPFMKTPIKAVLKGITNHPTDPSVDLLKVTAVPLMKRFGINGDGLEIKVVKRGMAPGGGGEVHFSCPVSRSMKPVQLTEAGKIKRIRGTAFSVRVSPQMANRIVDSARSILNKFIPDIYIYTDHMKGPNSGKSPGFGLGLVAETLNGVFLGAEVVSTPQGQGEMQLPEDLGRNCAKLLLEEIYRGGCVDSTNQSLALLYMTLGQQDVSKTLLGPLSPYTMDFLRHIRDFFQIMFKIETQKPSEDECKGGEKVLMTCVGAGYNNISKSIK | not soluble
MGHHHHHHSHMEDSHKSTTSETAPQPGSAVQGAHISHIAQQVSSLSESEESQDSSDSIGSSQKAHGILARRPSYRKILKDLSSEDTRGRKGDGENSGVSAAVTSMSVPTPIYQTSSGQYIAIAPNGALQLASPGTDGVQGLQTLTMTNSGSTQQGTTILQYAQTSDGQQILVPSNQVVVQTASGDMQTYQIRTTPSATSLPQTVVMTSPVTLTSQTTKTDDPQLKREIRLMKNREAARECRRKKKEYVKCLENRVAVLENQNKTLIEELKTLKDLYSNKSV | soluble
SATETQIRIGVMGCADIARKVSRAIHLAPNATISGVASRSLEKAKAFATANNYPESTKIHGSYESLLEDPEIDALYVPLPTSLHVEWAIKAAEKGKHILLEKPVAMNVTEFDKIVDACEANGVQIMDGTMWVHNPRTALLKEFLSDSERFGQLKTVQSCFSFAGDEDFLKNDIRVKPGLDGLGALGDAGWYAIRATLLANNFELPKTVTAFPGAVLNEAGVILSCGASLSWEDGRTATIYCSFLANLTMEITAIGTKGTLRVHDFIIPYKETEASFTTSTKAWFNDLVTAWVSPPSEHTVKTELPQEACMVREFARLVGEIKNNGAKPDGYWPSISRKTQLVVDAVKESVDKNYQQISLSGR | soluble
GPLGSPEFPHPLQDSWSYYLFQFRKALDWDECLEKVATFSTIEDFWSVLTHTVRPREITYGKDLYMFKSDIMPKWEDPKNENGGRWLINVTARQDVDFLWDELLMLLIGSDWDTDEEDRQICGAVFQPRSRGSKLSVWLTSDNEEETILSIGRRIKERLELEDTIYFQPVSDQRSQTRGSDICTGKYEI | soluble
MPSYTLTQLASAVRNCLESGFPGRYWVSAETSGVRVGISGHCYLELLDKDTSGSQVTARMKAMIWASDYATLSGRFQRETGETFDSGLHVLVLVSVSYHEQYGLSLRILDIDPSYTMGAMARKRKEIIEELRRQGLYDLNRSLSLPRPTQRIAIVSSGAAAGFEDFIAHLSHSAEHFCFYPVLFQAVMQGAQTEASVLGALERIAYHRDSFDVVVIIRGGGAVSELAAFDSLAIGQACARFPLPILTGIGHDRDETVVDLVAYRSLKTPTAVADFLVNCQREEWKLIDDLRSRAAEGLRMMMMYCHERLIQLSLRTPAILKSSVREEHHRIKSVEDRIRLAAKQRIAFGLQQLQIASRSLPALMKSELKQNTGQLDQVAARLPLLVTANLKNYNRRLETNEQAIRLLHPNATLRRGFAIVLKDDKAIRSHSELHKGDHLVAQFADGSVSAVVDQPQKGKH | not soluble
MAYQLYRNTTLGNSLQESLDELIQSQQITPQLALQVLLQFDKAINSALAQRVRNRVNFRVRMSSCIWKSVLLTLRAYVDLTHHSKIWLVWFGNLFYNRCAKFIHSMCFRIAFRF | not soluble
MSDHAEEHASINTKKTVENITDVRKTAKTSIDWTKPSGGEYPDIKQKHVWIDVNVKEQKAYIKEGSNTIYTMMISSGLDQTKDDATPKGTFYVEPERGEWFFSEGYQEGAEYWVSWKNHGEFLFHSVPMTKDQKVIKTEAEKLGTKVSHGCIRLTIPDAKWVYENIPEHTKVVISLEHHHHHH | not soluble
MGSDKIHHHHHHMLEFLSQQKPKILIIGDFMVDNYTWCDCSRISPEAPVLIAKTLKEDKRLGGAANVYANLKSLGADVFALGVVGDDESGKFLQENLKGEFLIQKGRKTPFKNRIMAHNQQVLRLDEEDISEILLENELIALFDEKIKDFKAVVLSDYAKGVLTPKVCKAVIEKAKVLNIPVLVDPKGSDFNKYSGATLLTPNKKEALEALKFENLEGENLEKGIKKLKEDFSLRYSIITLSEAGIALFDEGLKIAPAKALEVYDVTGAGDSVIAVLAFCLANEIEIFKACELANEAAAVVVSKIGSVSVSFDEIKSFKRVDFEKKIKSKEELLVLLKQNNKKIVFTNGCFDIVHFGHIKYLDKAKRLGDVLIVGLNSDASVKRLKGESRPVNSEFQRACMLAAFYFVDFVVIFDEDTPLELISFLKPDILVKGADYKDKLVVGADIVSRVELIDFEEGFSTSKIIEKIKDKK | not soluble
